Results as given in US20260209362A1 (VIB VZW, published 2026).

T1: human IL-12Rβ2 expressed on cells (human, UniProt Q99665 24-862)
T1 sequence: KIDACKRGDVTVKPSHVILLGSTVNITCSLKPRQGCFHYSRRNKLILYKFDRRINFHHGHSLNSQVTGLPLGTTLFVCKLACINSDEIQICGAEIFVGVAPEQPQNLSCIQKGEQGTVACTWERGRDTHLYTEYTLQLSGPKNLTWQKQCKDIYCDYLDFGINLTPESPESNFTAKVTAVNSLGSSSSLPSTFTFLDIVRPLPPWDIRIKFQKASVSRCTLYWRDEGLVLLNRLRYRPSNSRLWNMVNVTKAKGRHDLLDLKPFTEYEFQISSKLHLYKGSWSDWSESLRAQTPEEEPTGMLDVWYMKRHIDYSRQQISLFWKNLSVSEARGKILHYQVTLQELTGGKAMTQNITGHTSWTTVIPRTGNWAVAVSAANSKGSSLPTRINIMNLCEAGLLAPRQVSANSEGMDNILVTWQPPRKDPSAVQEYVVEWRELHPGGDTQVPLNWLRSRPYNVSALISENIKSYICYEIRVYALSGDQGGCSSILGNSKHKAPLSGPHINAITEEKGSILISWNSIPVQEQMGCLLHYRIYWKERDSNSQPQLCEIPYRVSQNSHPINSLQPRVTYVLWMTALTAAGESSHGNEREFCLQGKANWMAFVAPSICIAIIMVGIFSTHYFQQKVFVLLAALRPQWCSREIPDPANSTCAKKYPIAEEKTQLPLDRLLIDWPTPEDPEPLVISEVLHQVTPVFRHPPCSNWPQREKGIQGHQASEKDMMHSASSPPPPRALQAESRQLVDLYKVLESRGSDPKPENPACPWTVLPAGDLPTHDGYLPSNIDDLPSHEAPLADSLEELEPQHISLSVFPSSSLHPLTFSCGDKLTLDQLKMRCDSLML

T2: biotinylated recombinant mouse IL-12Rβ2 (mouse, UniProt P97378 24-637, random biotinylated)
T2 construct: Recombinant protein produced in-house; also called mIL-12RB2; mouse IL-12RB2
T2 sequence: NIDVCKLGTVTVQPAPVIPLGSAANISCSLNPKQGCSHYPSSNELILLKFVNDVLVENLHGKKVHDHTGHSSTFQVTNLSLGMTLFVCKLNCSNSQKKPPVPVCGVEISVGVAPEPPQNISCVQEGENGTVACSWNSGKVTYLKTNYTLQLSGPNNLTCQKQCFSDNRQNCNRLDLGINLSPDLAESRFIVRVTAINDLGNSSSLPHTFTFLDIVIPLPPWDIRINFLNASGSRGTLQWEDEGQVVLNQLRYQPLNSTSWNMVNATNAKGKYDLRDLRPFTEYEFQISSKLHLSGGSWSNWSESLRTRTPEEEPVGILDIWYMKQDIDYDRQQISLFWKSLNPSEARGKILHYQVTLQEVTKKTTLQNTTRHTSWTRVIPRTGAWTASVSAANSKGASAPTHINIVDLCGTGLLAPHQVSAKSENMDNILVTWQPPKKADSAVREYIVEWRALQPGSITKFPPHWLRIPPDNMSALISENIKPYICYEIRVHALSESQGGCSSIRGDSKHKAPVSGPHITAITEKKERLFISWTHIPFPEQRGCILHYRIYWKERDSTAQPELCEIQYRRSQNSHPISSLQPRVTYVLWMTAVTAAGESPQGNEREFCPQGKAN

T3: biotinylated recombinant human IL-12Rβ2 (human, UniProt Q99665 24-622, random biotinylated)
T3 construct: Recombinant protein produced in-house; also called hIL-12RB2; human IL-12RB2
T3 sequence: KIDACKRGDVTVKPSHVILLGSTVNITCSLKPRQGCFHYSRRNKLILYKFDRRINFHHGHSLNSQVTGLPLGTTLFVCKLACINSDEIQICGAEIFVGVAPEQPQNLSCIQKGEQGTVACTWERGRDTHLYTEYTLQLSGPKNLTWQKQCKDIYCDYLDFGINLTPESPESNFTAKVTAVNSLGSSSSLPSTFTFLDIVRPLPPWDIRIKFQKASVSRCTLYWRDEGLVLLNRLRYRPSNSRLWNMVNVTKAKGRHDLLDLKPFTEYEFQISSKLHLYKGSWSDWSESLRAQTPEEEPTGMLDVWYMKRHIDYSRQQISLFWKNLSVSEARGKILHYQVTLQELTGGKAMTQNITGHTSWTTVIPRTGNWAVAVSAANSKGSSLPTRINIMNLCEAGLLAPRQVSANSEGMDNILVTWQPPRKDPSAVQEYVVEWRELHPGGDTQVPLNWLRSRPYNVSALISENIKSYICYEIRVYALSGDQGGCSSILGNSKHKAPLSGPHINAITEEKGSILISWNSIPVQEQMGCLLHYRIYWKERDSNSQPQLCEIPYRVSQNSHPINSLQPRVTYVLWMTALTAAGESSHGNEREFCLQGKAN


How the values were obtained:
[1] = molecular target: T1, human IL-12Rβ2 expressed on cells; assay: cell-based or functional assay
[2] = molecular target: T2, biotinylated recombinant mouse IL-12Rβ2; assay: ELISA, P.E., biotinylated antigen
[3] = molecular target: T3, biotinylated recombinant human IL-12Rβ2; assay: ELISA, P.E., biotinylated antigen
[4] = molecular target: T3, biotinylated recombinant human IL-12Rβ2; assay: BLI, P.E., off-rate ranking

Row | Binder | % Specific Cell Lysis at 0.00125 ug/mL [1] [%] | % Specific Cell Lysis at 0.025 ug/mL [1] [%] | % Specific Cell Lysis at 0.5 ug/mL [1] [%] | % Specific Cell Lysis at 10 ug/mL [1] [%] | ELISA mIL-12RB2/control [2] | ELISA hIL-12RB2/control [3] | Response [4] | koff [4] [s⁻¹]
1 | 20373-FcDE (Fc fusion) VHH-Fc chain: QVQLQESGGGLVQAGGSLVLSCAASGSAALIFLMSWYRQAPGKQRELVAEVSRGGSTTYADSVEGRFTISRDNAKNIVDLQMNSLKPEDTAVYYCKADQNYGDSLRSSWGQGTQVTVSSAPELLGGPDVFLFPPKPKDTLMISRTPEVTCVVVDVSHEDPEVKFNWYVDGVEVHNAKTKPREEQYNSTYRVVSVLTVLHQDWLNGKEYKCKVSNKALPAPEEKTISKAKGQPREPQVYTLPPSRDELTKNQVSLTCLVKGFYPSDIAVEWESNGQPENNYKTTPPVLDSDGSFFLYSKLTVDKSRWQQGNVFSCSVMHEALHNHYTQKSLSLSPGK | 48.9 | 61.1 | 67.4 | 70.7 |  |  |  | 
2 | anti-IL-12Rβ2 VHH clone 3CRHS31 (clone ID 20418) (VHH, not shown: small tags and cut ends, periplasmic extract) VHH: QVQLQESGGGLVQAGGSLRLSCAASGFTFSTYAMSWVRQAPGKGLEWVSSVNSGGLSTDYADSVEGRFTISRDDAKNMLFLQMNSLKPEDTARYYCAKYEDCSDYVCDRAGYWGQGTQVTVSS |  |  |  |  | 1.16 | 10.9 | 0.234 | 0.00429
3 | 20372-FcDE (Fc fusion) VHH-Fc chain: QVQLQESGGGLVQAGGSLRLSCAASARTESMYAMAWFRQAPGKEREIVAGIIQSGGTTYISDYMKGRFSIDRGNAENTVYLQMDSLKPEDTAVYSCAAKVSSGTPSDIQISQSRWYDHWGQGTQVTVSSAPELLGGPDVFLFPPKPKDTLMISRTPEVTCVVVDVSHEDPEVKFNWYVDGVEVHNAKTKPREEQYNSTYRVVSVLTVLHQDWLNGKEYKCKVSNKALPAPEEKTISKAKGQPREPQVYTLPPSRDELTKNQVSLTCLVKGFYPSDIAVEWESNGQPENNYKTTPPVLDSDGSFFLYSKLTVDKSRWQQGNVFSCSVMHEALHNHYTQKSLSLSPGK | 51.1 |  | 66.9 | 69.9 |  |  |  | 
4 | anti-IL-12Rβ2 VHH clone 3CAHS41 (clone ID 20394) (VHH, not shown: small tags and cut ends, periplasmic extract) VHH: QVQLQESGGGLVQAGDSLRLSCAASGRTFDTYIVGWFRQAPGKEREFVSALSWSDDTTIRDDSLRGRFTISRDNAKNTVYLLMNSLKPEDTAVYYCAAKAKPPAATWSSYRNREWYDYWGQGTQVTVSS |  |  |  |  | 1.35 | 8.77 | 0.609 | 0.00441
5 | 20394-FcDE (Fc fusion) VHH-Fc chain: QVQLQESGGGLVQAGDSLRLSCAASGRTFDTYIVGWFRQAPGKEREFVSALSWSDDTTIRDDSLRGRFTISRDNAKNTVYLLMNSLKPEDTAVYYCAAKAKPPAATWSSYRNREWYDYWGQGTQVTVSSAPELLGGPDVFLFPPKPKDTLMISRTPEVTCVVVDVSHEDPEVKFNWYVDGVEVHNAKTKPREEQYNSTYRVVSVLTVLHQDWLNGKEYKCKVSNKALPAPEEKTISKAKGQPREPQVYTLPPSRDELTKNQVSLTCLVKGFYPSDIAVEWESNGQPENNYKTTPPVLDSDGSFFLYSKLTVDKSRWQQGNVFSCSVMHEALHNHYTQKSLSLSPGK | 54 | 52.1 |  | 66 |  |  |  | 
6 | 20378-FcDE (Fc fusion) VHH-Fc chain: QVQLQESGGGLVQAGDSLRLSCTASGHTFSRYTTIGWFRQAPGKDREFVAAIRWSGDITDYADAVKGRFTISRDNVKNTVYLQMNSLNPEDTAVYYCARGYSEYGVLSRNRGLYAYWGQGTQVTVSSAPELLGGPDVFLFPPKPKDTLMISRTPEVTCVVVDVSHEDPEVKFNWYVDGVEVHNAKTKPREEQYNSTYRVVSVLTVLHQDWLNGKEYKCKVSNKALPAPEEKTISKAKGQPREPQVYTLPPSRDELTKNQVSLTCLVKGFYPSDIAVEWESNGQPENNYKTTPPVLDSDGSFFLYSKLTVDKSRWQQGNVFSCSVMHEALHNHYTQKSLSLSPGK | 52.4 |  |  |  |  |  |  | 

Other lines, results leading:

Row | % Specific Cell Lysis at 0.00125 ug/mL [1] [%] | % Specific Cell Lysis at 0.025 ug/mL [1] [%] | % Specific Cell Lysis at 0.5 ug/mL [1] [%] | % Specific Cell Lysis at 10 ug/mL [1] [%] | ELISA mIL-12RB2/control [2] | ELISA hIL-12RB2/control [3] | Response [4] | koff [4] [s⁻¹] | Binder
7 | 61 | 63.1 | 67.1 | 72.4 |  |  |  |  | 20399-FcDE (Fc fusion) VHH-Fc chain: QVQLQESGGGLVQPGGSLRLSCAASGSILRINLMGWYRQVPGKQRELVAEMSTGGSTTYVDSVEGRFTISRDNAKNTVYLQMNSLKPEDTAVYYCNAKAWQLGRLENDDWGQGTQVTVSSAPELLGGPDVFLFPPKPKDTLMISRTPEVTCVVVDVSHEDPEVKFNWYVDGVEVHNAKTKPREEQYNSTYRVVSVLTVLHQDWLNGKEYKCKVSNKALPAPEEKTISKAKGQPREPQVYTLPPSRDELTKNQVSLTCLVKGFYPSDIAVEWESNGQPENNYKTTPPVLDSDGSFFLYSKLTVDKSRWQQGNVFSCSVMHEALHNHYTQKSLSLSPGK
8 |  |  |  |  | 0.868 | 3.51 | 0.643 | 0.00622 | anti-IL-12Rβ2 VHH clone 2CRH62 (clone ID 20368) (VHH, not shown: small tags and cut ends, periplasmic extract) VHH: QVQLQESGGGLVQPGGSLRLSCVESGRTFTVYDMGWFRQAPGKEREIVAAISADGATSIYQDSVKGRFTISRDNDAKNTVYLQMNSLKPEDTAVYYCAAGRSLIYNLYRANNTDYWGQGTQVTVSS
9 |  |  |  |  | 1.9 | 3.91 | 0.59 | 0.00517 | anti-IL-12Rβ2 VHH clone 3CAH60 (clone ID 20361) (VHH, not shown: small tags and cut ends, periplasmic extract) VHH: QVQLQESGGGLVQPGGSLILSCVASGFAMDYLTMGWSREAPRNEREDISCIDTSGRSTDYLDSVKGRFTISRDNAKNTLYLHMNDLKPEDTAEYYCLASTSYCGAGYEYRGQGTQVTVSS
10 |  |  |  |  | 0.946 | 12 | 0.327 | 0.0043 | anti-IL-12Rβ2 VHH clone 3CRHS51 (clone ID 20421) (VHH, not shown: small tags and cut ends, periplasmic extract) VHH: QVQLQESGGGLVQPGGSLRLSCAASGFTFSTYAMSWVRQAPGKGLEWVSAVNSGGLSTDYADSVEGRFTISRDDAKNMLFLQMNRLKPEDTARYYCAKYEDCSDYVCDRAGYWGQGTQVTVSS
11 |  |  |  |  | 1.19 | 4.78 | 0.376 | 0.00265 | anti-IL-12Rβ2 VHH clone 3CAHS180 (clone ID 20410) (VHH, not shown: small tags and cut ends, periplasmic extract) VHH: QVQLQESGGGLVQAGDSLRLSCAASGRTFDTYIVGWFRQAPGKEREFVSALSWSDDTTIRDDSLRGRFTLSRDNAKNTVYLLMNSLKPEDTAVYYCAAKAKPPAATWSSYRNREWYDYWGQGTQVTVSS
12 |  |  |  |  | 0.4 | 7.57 | 0.576 | 0.00483 | anti-IL-12Rβ2 VHH clone 3CAH28 (clone ID 20356) (VHH, not shown: small tags and cut ends, periplasmic extract) VHH: QVQLQESGGGLVQSGASLRLSCAASERTLSGYAMGWFRQAPGKEREFVAAIRWSGSSTYYAESVEGRFTISRDNAKNTVYLQMNILKPEDTAVYYCAAGSDYADEYDYWGQGTQVTVSS
13 |  |  |  |  | 0.975 | 3.64 | 0.4 | 0.00428 | anti-IL-12Rβ2 VHH clone 3CRH28 (clone ID 20380) (VHH, not shown: small tags and cut ends, periplasmic extract) VHH: QVQLQESGGGLVQPGGSLTLSCAASGFTFSSNAMSWVRQAPGKGLEWVSSISSGGGTTYYTDSVKGRFTTARDNAKNTLYLRMNSLKPEDTAVYYCSKSSTGSGSRGQGTQVTVSS
